{"source": "patent US20150343090A1", "biological_target": "neuropilin-1 (NRP-1) receptor on PPC-1 prostate cancer cells (human) (UniProt O14786)", "sequence (O14786 22-923)": "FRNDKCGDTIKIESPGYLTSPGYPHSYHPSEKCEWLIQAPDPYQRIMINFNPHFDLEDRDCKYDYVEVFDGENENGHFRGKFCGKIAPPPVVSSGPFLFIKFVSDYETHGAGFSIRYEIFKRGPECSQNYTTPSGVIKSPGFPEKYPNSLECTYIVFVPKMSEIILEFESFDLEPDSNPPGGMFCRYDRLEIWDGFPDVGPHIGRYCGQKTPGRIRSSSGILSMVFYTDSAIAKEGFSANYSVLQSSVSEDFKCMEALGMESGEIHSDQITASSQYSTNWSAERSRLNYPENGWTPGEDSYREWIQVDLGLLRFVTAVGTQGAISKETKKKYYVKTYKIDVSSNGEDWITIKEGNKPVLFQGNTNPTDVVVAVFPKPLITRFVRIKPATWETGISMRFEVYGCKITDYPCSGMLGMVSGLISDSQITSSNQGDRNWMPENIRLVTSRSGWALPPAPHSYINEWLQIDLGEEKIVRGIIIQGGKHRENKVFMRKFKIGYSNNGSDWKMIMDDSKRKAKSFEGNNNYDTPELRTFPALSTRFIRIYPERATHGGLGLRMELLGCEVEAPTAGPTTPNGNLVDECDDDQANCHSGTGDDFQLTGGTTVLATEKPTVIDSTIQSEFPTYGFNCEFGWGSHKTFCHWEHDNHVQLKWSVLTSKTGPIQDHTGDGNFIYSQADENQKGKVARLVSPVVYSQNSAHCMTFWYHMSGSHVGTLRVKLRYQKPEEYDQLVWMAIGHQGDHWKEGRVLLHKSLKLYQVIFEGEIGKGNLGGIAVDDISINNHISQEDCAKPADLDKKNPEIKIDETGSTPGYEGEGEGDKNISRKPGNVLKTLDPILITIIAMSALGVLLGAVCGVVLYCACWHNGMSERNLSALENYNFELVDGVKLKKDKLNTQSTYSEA", "experiment": "cell-based or functional assay"}
{"substance": "His-tag-GFP-RPARPAR (RPARPAR-modified GFP fusion protein) loaded on NTA-Ni hollow gold nanoshells", "values": [{"measurement": "GFP internalized per PPC-1 cell (cell lysate fluorescence) (GFP molecules per cell)", "result": 100000}, {"measurement": "nanoshells internalized per PPC-1 cell (calculated from cell lysate fluorescence) (RPARPAR GFP-HGN per cell)", "result": 200}]}
